Test results taken from patent publication US20060234285A1 (Human Genome Sciences, published 2006).

What was measured:
Assay in all cases: flow cytometry on transiently transfected cells
[1] = target: T1, LTβR, on transiently transfected cells (UniProt P36941 31-435)
T1 construct: whole, on cells
Procedure: (§1) One million cells, in 0.1 ml of FACS buffer (PBS, 0.1% BSA, 0.1% NaN₃), were incubated with 0.1-1 microgram of protein or antibody at RT for 15 min. The cells were washed with 3 ml of FACS buffer, reacted with biotinylated primary antibody, and stained with PE-conjugated secondary antibody at RT for 15 min. Cells were then washed again, resuspended in 0.5 microgram/ml of propidium iodide, and live cells were gated and analyzed on a FACScan using the CellQuest software (BD Biosciences).

[2] = target: T2, CD27, on transiently transfected cells (UniProt P26842 20-260, limits assumed)
T2 construct: whole, on cells
T2 sequence (looked up): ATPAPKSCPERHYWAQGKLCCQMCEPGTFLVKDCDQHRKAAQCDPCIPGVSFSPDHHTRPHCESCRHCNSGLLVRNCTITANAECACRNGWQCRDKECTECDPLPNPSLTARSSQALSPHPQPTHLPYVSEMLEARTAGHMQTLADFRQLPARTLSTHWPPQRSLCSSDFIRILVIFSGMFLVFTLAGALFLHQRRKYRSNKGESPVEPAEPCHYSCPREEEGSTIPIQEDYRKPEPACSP
Procedure: as §1

[3] = target: T3, CD30, on transiently transfected cells (UniProt P28908 19-595, limits assumed)
T3 construct: whole, on cells
T3 sequence (looked up): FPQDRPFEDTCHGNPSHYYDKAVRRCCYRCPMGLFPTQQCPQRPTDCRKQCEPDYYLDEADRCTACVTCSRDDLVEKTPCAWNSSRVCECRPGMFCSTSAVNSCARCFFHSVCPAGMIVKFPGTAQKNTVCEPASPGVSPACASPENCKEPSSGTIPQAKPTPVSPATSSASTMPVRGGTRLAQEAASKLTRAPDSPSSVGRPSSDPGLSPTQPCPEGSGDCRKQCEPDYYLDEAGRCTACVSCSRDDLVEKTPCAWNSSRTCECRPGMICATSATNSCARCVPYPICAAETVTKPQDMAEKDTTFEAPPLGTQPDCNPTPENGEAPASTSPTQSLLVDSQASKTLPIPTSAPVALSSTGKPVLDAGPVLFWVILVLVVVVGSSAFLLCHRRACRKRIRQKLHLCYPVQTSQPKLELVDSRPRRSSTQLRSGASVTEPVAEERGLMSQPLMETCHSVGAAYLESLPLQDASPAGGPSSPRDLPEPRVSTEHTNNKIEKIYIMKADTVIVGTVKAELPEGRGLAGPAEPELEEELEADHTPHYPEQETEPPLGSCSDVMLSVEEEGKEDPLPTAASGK
Procedure: as §1

[4] = target: T4, DR5, on transiently transfected cells (UniProt O14763 56-440, limits assumed)
T4 construct: whole, on cells
Procedure: as §1

[5] = target: T5, DcR1, on transiently transfected cells (UniProt O14798 26-236, limits assumed)
T5 construct: whole, on cells
T5 sequence (looked up): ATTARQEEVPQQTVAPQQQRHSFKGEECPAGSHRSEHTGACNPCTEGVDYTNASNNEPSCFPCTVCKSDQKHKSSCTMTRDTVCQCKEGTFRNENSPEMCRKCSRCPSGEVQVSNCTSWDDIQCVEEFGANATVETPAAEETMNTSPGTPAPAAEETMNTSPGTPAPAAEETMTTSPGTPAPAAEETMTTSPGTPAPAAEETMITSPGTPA
Procedure: as §1

[6] = target: T6, DcR2, on transiently transfected cells (UniProt Q9UBN6 56-386, limits assumed)
T6 construct: whole, on cells
T6 sequence (looked up): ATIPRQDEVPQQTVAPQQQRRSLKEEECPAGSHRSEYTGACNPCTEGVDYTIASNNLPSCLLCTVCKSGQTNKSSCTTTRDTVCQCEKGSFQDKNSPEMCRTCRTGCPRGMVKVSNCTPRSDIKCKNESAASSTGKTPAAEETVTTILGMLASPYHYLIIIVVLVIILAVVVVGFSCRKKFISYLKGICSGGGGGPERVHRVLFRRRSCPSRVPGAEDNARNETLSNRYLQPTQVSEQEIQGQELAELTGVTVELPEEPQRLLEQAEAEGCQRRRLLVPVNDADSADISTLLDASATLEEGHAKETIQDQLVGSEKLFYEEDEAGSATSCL
Procedure: as §1

[7] = target: T7, AITR, on transiently transfected cells (UniProt Q9Y5U5 26-241, limits assumed)
T7 construct: whole, on cells
T7 sequence (looked up): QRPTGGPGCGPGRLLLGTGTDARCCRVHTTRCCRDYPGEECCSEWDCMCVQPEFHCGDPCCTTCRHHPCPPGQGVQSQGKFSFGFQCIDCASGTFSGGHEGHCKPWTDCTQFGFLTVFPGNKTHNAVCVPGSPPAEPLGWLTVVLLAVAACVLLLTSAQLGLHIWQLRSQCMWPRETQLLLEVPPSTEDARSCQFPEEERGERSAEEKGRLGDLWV
Procedure: as §1

Measured: binding result

T1 sequence (P36941 31-435): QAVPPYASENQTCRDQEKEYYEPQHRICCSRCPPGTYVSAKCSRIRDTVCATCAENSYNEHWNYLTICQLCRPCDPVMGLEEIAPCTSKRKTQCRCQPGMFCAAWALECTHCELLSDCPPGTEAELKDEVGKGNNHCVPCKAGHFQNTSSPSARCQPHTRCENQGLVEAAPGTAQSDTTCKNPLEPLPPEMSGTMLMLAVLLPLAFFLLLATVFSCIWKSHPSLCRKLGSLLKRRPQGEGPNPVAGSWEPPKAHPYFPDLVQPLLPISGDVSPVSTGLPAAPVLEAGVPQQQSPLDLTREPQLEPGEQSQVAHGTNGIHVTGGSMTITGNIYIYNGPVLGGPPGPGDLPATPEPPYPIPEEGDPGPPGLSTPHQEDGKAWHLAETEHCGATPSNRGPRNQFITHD

B1: FLAG-tagged soluble form of TNF-gamma-beta (aa 72-251) (ligand, human, UniProt O95150 72-251, looked up, not shown: small tags and cut ends)
chain: LKGQEFAPSHQQVYAPLRADGDKPRAHLTVVRQTPTQHFKNQFPALHWEHELGLAFTKNRMNYTNKFLLIPESGDYFIYSQVTFRGMTSECSEIRQAGRPNKPDSITVVITKVTDSYPEPTQLLMGTKSVCEVGSNWFQPIYLGAMFSLQEGDKLMVNVSDISLVDYTKEDKTFFGAFLL
notes: also called FLAG-TL1β; FLAG-TNF-gamma-beta
no binding: all assays above
